Legend:
[1] = target: T1, 4H462-bN; assay: two-hybrid library CCNG1;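 further: natural log of median RNA to DNA barcode read ratio; higher means stronger binding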
T1 chain: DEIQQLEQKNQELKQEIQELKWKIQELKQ

[2] = target: T2, 4H607-bN; assay: two-hybrid library CCNG1;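 further: natural log of median RNA to DNA barcode read ratio; higher means stronger binding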
T2 chain: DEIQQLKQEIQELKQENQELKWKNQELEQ

[3] = target: T3, 4H687-bN; assay: two-hybrid library CCNG1;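 further: natural log of median RNA to DNA barcode read ratio; higher means stronger binding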
T3 chain: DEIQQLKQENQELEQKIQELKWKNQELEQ

[4] = target: T4, 4H918-bN; assay: two-hybrid library CCNG1;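 further: natural log of median RNA to DNA barcode read ratio; higher means stronger binding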
T4 chain: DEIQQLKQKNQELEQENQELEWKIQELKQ

[5] = target: T5, 4H953-bN; assay: two-hybrid library CCNG1
T5 chain: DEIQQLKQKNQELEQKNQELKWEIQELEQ

[6] = target: T6, 4H797-bN; assay: two-hybrid library CCNG1
T6 chain: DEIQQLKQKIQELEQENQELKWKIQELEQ

[7] = target: T7, 4H883-bN; assay: two-hybrid library CCNG1
T7 chain: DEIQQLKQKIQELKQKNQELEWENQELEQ

[8] = target: T8, 4H568-bN; assay: two-hybrid library CCNG1
T8 chain: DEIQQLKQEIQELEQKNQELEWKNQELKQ

[9] = target: T9, 4H967-bN; assay: two-hybrid library CCNG1
T9 chain: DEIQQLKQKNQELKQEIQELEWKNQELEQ

[10] = target: T10, 4H72-bN; assay: two-hybrid library CCNG1
T10 chain: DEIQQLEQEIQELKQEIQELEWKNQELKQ

[11] = target: T11, 4H741-bH; assay: two-hybrid library CCNG1
T11 chain: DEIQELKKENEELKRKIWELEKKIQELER

[12] = target: T12, 4H492-bH; assay: two-hybrid library CCNG1
T12 chain: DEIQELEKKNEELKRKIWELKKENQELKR

[13] = target: T13, 4H477-bH; assay: two-hybrid library CCNG1
T13 chain: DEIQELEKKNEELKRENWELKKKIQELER

[14] = target: T14, 4H850-bH; assay: two-hybrid library CCNG1
T14 chain: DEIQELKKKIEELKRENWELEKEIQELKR

[15] = target: T15, 4H619-bH; assay: two-hybrid library CCNG1
T15 chain: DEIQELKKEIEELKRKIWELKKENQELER

[16] = target: T16, 4H906-bH; assay: two-hybrid library CCNG1
T16 chain: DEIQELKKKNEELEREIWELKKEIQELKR

[17] = target: T17, APC9319-AA; assay: two-hybrid library CCmax; conditions: mean of both orientations
T17 chain: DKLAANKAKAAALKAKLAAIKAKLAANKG

[18] = target: T18, APC5383-AA; assay: two-hybrid library CCmax; conditions: mean of both orientations
T18 chain: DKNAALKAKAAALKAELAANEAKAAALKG

[19] = target: T19, APC8910-AA; assay: two-hybrid library CCmax; conditions: mean of both orientations
T19 chain: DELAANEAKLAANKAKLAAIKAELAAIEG

[20] = target: T20, APC7099-AA; assay: two-hybrid library CCmax; conditions: mean of both orientations
T20 chain: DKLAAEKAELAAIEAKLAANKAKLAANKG

[21] = target: T21, APC6108-AA; assay: two-hybrid library CCmax; conditions: mean of both orientations
T21 chain: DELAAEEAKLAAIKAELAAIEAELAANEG

[22] = target: T22, APC9096-AA; assay: two-hybrid library CCmax; conditions: mean of both orientations
T22 chain: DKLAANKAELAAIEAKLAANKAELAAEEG

[23] = target: T23, APC4436-AA; assay: two-hybrid library CCmax
T23 chain: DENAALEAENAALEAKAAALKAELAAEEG

[24] = target: T24, APC8191-AA; assay: two-hybrid library CCmax; conditions: mean of both orientations
T24 chain: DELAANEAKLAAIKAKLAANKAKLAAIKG

[25] = target: T25, P8mS; assay: two-hybrid library CC1
T25 chain: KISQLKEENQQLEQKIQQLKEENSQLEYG

[26] = target: T26, P9; assay: two-hybrid library CC1; conditions: mean of both orientations
T26 chain: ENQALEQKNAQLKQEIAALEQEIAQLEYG

Binder DEIQQLEQKNQELKQEIQELKWKIQELKQ [4H462-bN] has an interaction score [1] of -0.578, an interaction score [2] of 0.42 and an interaction score [3] of -0.147. For the same binder, the interaction score [4] was -1.19, the interaction score [5] was -0.25 and the interaction score [6] was -0.297. The interaction score [7] was -1.4, the interaction score [8] was 0.685 and the interaction score [9] was -0.954. It also gave an interaction score [10] of -0.825.

With DEIQELEKKNEELKRENWELKKKIQELER [4H477-bH] the interaction score [11] was -0.234, the interaction score [12] was -1.31 and the interaction score [13] was 0.526.

DEIQELKKEIEELKRKIWELKKENQELER [4H619-bH] gave an interaction score [14] of 0.196, an interaction score [15] of 0.749 and an interaction score [16] of -0.349.

DENAALEAENAALEAKAAALKAELAAEEG [APC4436-AA] was tested, and the interaction score [17] was -1.7, the interaction score [18] was -1.76 and the interaction score [19] was -1.76. The interaction score [20] was -1.57, the interaction score [21] was -2.03 and the interaction score [22] was -1.96. It also gave an interaction score [23] of -2.09 and an interaction score [24] of -2.27.

Work on KISQLKEENQQLEQKIQQLKEENSQLEYG [P8mS] yielded an interaction score [25] of -3.02 and an interaction score [26] of -2.35.
